# Tests used:
# Test in all cases: pulldown
# IgM (Homo sapiens) = settings: P = 2NapdU; Zorbax beads, SB18, 37C
# [1] = system: Total IgG (sheep) (Ovis aries); settings: P = 2NapdU; Zorbax beads, SB18, 37C
# [2] = system: IgG4-Fc (Homo sapiens), P01861-1; settings: P = 2NapdU; 37C, bead partitioning
# [3] = system: Immunoglobulin G (total IgG); settings: P = 2NapdU; SB18, 37C; 8E-09 M in Table 7
# [4] = system: IgG4-Kappa (Homo sapiens), P01861-1+P01834; settings: P = 2NapdU; Protein L beads, SB17, 37C
# [5] = system: IgG3-Fc (Homo sapiens), P01860-1; settings: P = 2NapdU; 37C, bead partitioning
# [6] = system: Total IgG (cow) (Bos taurus); settings: P = 2NapdU; Zorbax beads, SB18, 37C
# IgD (Homo sapiens) = settings: P = 2NapdU; Zorbax beads, SB18, 37C
# [7] = system: Total IgG (monkey) (monkey); settings: P = 2NapdU; Zorbax beads, SB18, 37C
# [8] = system: IgG2-Fc (Homo sapiens), P01859-1; settings: P = 2NapdU; 37C, bead partitioning
# IgA (Homo sapiens) = settings: P = 2NapdU; Zorbax beads, SB18, 37C
# [9] = system: IgG3-Kappa (Homo sapiens), P01860-1+P01834; settings: P = 2NapdU; Protein L beads, SB17, 37C
# [10] = system: IgG1-Fc (Homo sapiens), P01857-1; settings: P = 2NapdU; 37C, bead partitioning
# IgM (cow) (Bos taurus) = settings: P = 2NapdU; Zorbax beads, SB18, 37C
# [11] = system: IgG1-Kappa (Homo sapiens), P01857-1+P01834; settings: P = 2NapdU; Protein L beads, SB17, 37C
# [12] = system: Total IgG (rabbit) (Oryctolagus cuniculus); settings: P = 2NapdU; Zorbax beads, SB18, 37C
# [13] = system: IgG1 (mouse) (Mus musculus); settings: P = 2NapdU; Protein L beads, SB17; printed as 3E07 (minus sign missing)
# [14] = system: β-FGFR fusion (Fc fusion protein) (Homo sapiens); settings: P = 2NapdU; 37C, bead partitioning
# [15] = system: Total IgG (goat) (Capra hircus); settings: P = 2NapdU; Zorbax beads, SB18, 37C
# [16] = system: Total IgG (mouse) (Mus musculus); settings: P = 2NapdU; Zorbax beads, SB18, 37C
# Chain of IgG2-Fc (Homo sapiens), P01859-1 (P01859 other isoform, or with tags, fused parts or gaps): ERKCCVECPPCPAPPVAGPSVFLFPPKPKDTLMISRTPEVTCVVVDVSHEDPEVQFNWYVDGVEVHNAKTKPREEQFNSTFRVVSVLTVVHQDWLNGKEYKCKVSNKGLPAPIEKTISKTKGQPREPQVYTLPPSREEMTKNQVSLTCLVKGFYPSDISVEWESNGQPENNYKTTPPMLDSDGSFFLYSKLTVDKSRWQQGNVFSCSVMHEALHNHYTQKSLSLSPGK
# Chain of IgG4-Fc (Homo sapiens), P01861-1 (P01861 other isoform, or with tags, fused parts or gaps): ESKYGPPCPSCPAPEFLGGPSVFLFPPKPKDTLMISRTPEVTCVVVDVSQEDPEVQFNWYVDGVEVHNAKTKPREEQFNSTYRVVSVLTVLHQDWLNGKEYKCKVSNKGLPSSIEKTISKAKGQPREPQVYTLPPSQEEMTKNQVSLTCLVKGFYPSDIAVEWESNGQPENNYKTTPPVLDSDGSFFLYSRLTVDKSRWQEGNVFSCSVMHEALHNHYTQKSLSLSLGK
# Chain of IgG3-Fc (Homo sapiens), P01860-1 (P01860 other isoform, or with tags, fused parts or gaps): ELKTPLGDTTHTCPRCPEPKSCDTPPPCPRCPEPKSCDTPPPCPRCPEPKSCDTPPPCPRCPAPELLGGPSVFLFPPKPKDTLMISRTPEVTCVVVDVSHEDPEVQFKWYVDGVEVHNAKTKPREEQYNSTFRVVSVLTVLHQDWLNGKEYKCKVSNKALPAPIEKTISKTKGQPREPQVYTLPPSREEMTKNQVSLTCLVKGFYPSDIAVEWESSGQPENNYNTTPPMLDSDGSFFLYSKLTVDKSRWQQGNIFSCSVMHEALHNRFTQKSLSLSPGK
# Chain of IgG3-Kappa (Homo sapiens), P01860-1+P01834 (P01860 other isoform, or with tags, fused parts or gaps, chain 1 of 2, other chains not shown): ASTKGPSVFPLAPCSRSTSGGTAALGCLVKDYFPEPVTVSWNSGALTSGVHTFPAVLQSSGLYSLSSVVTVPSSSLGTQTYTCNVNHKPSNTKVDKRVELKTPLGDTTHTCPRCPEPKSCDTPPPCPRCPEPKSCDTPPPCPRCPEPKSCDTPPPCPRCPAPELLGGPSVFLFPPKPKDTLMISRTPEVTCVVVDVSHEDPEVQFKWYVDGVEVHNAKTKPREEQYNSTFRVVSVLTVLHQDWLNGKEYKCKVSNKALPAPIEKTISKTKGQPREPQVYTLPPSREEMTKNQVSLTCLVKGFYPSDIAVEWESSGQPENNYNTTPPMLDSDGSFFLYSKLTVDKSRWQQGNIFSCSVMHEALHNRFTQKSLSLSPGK
# Chain of IgG4-Kappa (Homo sapiens), P01861-1+P01834 (P01861 other isoform, or with tags, fused parts or gaps, chain 1 of 2, other chains not shown): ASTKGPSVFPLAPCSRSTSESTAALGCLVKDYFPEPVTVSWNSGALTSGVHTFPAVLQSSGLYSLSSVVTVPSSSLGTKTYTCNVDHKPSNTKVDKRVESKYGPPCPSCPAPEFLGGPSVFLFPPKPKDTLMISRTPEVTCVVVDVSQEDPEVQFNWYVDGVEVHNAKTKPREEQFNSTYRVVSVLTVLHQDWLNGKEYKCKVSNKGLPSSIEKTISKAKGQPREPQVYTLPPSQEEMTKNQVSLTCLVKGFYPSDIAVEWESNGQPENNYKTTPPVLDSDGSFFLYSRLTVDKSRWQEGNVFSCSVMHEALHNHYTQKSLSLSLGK
sequence,measurement,setting,value
GCGGTTACCTTGTAGGCGATTATGGGCA [5334-8_34],Kd,IgM (Homo sapiens),0.6 nM
same,Kd,[1],500 nM
same,Kd,[2],2 nM
same,Kd,[3],9.71 nM
same,Kd,[4],3 nM
same,Kd,[5],1 nM
same,Kd,[6],500 nM
same,Kd,IgD (Homo sapiens),60 nM
same,Kd,[7],6 nM
same,Kd,[8],2 nM
same,Kd,IgA (Homo sapiens),40 nM
same,Kd,[9],4 nM
same,Kd,[10],5 nM
same,Kd,IgM (cow) (Bos taurus),40 nM
same,Kd,[11],20 nM
same,Kd,[12],9 nM
same,Kd,[13],300 nM
same,Kd,[14],2 nM
same,Kd,[15],600 nM
same,Kd,[16],200 nM
